# Measured values published in patent US20230357348A1 (AstraZeneca / MedImmune, published 2023).
# Starred links: 1 amine or outer side, 2 acyl side, 3 side chain; linkers in the order of their positions; H or OH if unused. Non-standard residues stand in square brackets, D forms with d. Groups on a side chain read outwards from the residue. No end group written: not given here. *: point of attachment. C20 diacid = O=C(O)CCCCCCCCCCCCCCCCCCC(=O)*; C18 diacid = O=C(O)CCCCCCCCCCCCCCCCC(=O)*; PEG8 = NCCOCCOCCOCCOCCOCCOCCOCCOCCC(=O)O; Dip = N[C@H](C(=O)O)C(c1ccccc1)c1ccccc1; γGlu = O=C(O)[C@H](CCC(=O)[*:2])N[*:1]; Stearoyl = CCCCCCCCCCCCCCCCCC(=O)*; αMeF = C[C@](N)(Cc1ccccc1)C(=O)O; (PEG)2 = polyethylene glycol 2; PEG4 = NCCOCCOCCOCCOCCC(=O)O; AEEA = NCCOCCOCC(=O)O; Aib = CC(C)(N)C(=O)O
# Columns and labels:
# [1] = target: human GLP-1 receptor (hGLP-1R) (human, UniProt P43220 24-463); experiment: cell-based or functional assay
# [2] = target: human glucagon receptor (hGCGR) (human, UniProt P47871 26-477); experiment: cell-based or functional assay
# Sequence of human glucagon receptor (hGCGR) (P47871 26-477): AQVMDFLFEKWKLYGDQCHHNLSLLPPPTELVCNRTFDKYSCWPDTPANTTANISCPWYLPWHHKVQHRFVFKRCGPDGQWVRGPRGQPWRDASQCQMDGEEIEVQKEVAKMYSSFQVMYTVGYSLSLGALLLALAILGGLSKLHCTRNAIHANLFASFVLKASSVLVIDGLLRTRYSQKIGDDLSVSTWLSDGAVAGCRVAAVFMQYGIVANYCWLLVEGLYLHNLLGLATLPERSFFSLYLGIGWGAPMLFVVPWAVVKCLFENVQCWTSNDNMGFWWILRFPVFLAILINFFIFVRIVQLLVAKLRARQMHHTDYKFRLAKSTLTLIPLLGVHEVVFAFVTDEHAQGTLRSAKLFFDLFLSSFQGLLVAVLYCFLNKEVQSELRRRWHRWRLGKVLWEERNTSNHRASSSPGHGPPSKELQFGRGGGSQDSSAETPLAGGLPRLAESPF
Binder,hGLP-1R EC50 (pM) [1] [pM],hGluc-R EC50 (pM) [2] [pM]
H[Aib]QGTFTSDVSK[αMeF]LDSK([AEEA-AEEA-γGlu-C20 diacid])RAQDFVRWLL[Aib]E-OH (N-terminus assumed; SMILES CC(C)C[C@H](NC(=O)[C@H](Cc1c[nH]c2ccccc12)NC(=O)[C@H](CCCNC(=N)N)NC(=O)[C@@H](NC(=O)[C@H](Cc1ccccc1)NC(=O)[C@H](CC(=O)O)NC(=O)[C@H](CCC(N)=O)NC(=O)[C@H](C)NC(=O)[C@H](CCCNC(=N)N)NC(=O)[C@H](CCCCNC(=O)COCCOCCNC(=O)COCCOCCNC(=O)CC[C@H](NC(=O)CCCCCCCCCCCCCCCCCCC(=O)O)C(=O)O)NC(=O)[C@H](CO)NC(=O)[C@H](CC(=O)O)NC(=O)[C@H](CC(C)C)NC(=O)[C@](C)(Cc1ccccc1)NC(=O)[C@H](CCCCN)NC(=O)[C@H](CO)NC(=O)[C@@H](NC(=O)[C@H](CC(=O)O)NC(=O)[C@H](CO)NC(=O)[C@@H](NC(=O)[C@H](Cc1ccccc1)NC(=O)[C@@H](NC(=O)CNC(=O)[C@H](CCC(N)=O)NC(=O)C(C)(C)NC(=O)[C@@H](N)Cc1c[nH]cn1)[C@@H](C)O)[C@@H](C)O)C(C)C)C(C)C)C(=O)N[C@@H](CC(C)C)C(=O)NC(C)(C)C(=O)N[C@@H](CCC(=O)O)C(=O)O) [Peptide 153],41.2,99
H[Aib]QGS[αMeF]TSDVSK[αMeF]LDSK([AEEA-AEEA-γGlu-γGlu-C18 diacid])AAQD[αMeF]VQ[Aib]IAN-NH2 (N-terminus assumed; SMILES CC[C@H](C)[C@H](NC(=O)C(C)(C)NC(=O)[C@H](CCC(N)=O)NC(=O)[C@@H](NC(=O)[C@](C)(Cc1ccccc1)NC(=O)[C@H](CC(=O)O)NC(=O)[C@H](CCC(N)=O)NC(=O)[C@H](C)NC(=O)[C@H](C)NC(=O)[C@H](CCCCNC(=O)COCCOCCNC(=O)COCCOCCNC(=O)CC[C@H](NC(=O)CC[C@H](NC(=O)CCCCCCCCCCCCCCCCC(=O)O)C(=O)O)C(=O)O)NC(=O)[C@H](CO)NC(=O)[C@H](CC(=O)O)NC(=O)[C@H](CC(C)C)NC(=O)[C@](C)(Cc1ccccc1)NC(=O)[C@H](CCCCN)NC(=O)[C@H](CO)NC(=O)[C@@H](NC(=O)[C@H](CC(=O)O)NC(=O)[C@H](CO)NC(=O)[C@@H](NC(=O)[C@](C)(Cc1ccccc1)NC(=O)[C@H](CO)NC(=O)CNC(=O)[C@H](CCC(N)=O)NC(=O)C(C)(C)NC(=O)[C@@H](N)Cc1c[nH]cn1)[C@@H](C)O)C(C)C)C(C)C)C(=O)N[C@@H](C)C(=O)N[C@@H](CC(N)=O)C(N)=O) [Peptide 5],283,7140
H[Aib]QGTFTSDVSK[αMeF]LDSK([AEEA-AEEA-γGlu-C18 diacid])RARDFVRWLL[Aib]TE-OH (N-terminus assumed; SMILES CC(C)C[C@H](NC(=O)[C@H](Cc1c[nH]c2ccccc12)NC(=O)[C@H](CCCNC(=N)N)NC(=O)[C@@H](NC(=O)[C@H](Cc1ccccc1)NC(=O)[C@H](CC(=O)O)NC(=O)[C@H](CCCNC(=N)N)NC(=O)[C@H](C)NC(=O)[C@H](CCCNC(=N)N)NC(=O)[C@H](CCCCNC(=O)COCCOCCNC(=O)COCCOCCNC(=O)CC[C@H](NC(=O)CCCCCCCCCCCCCCCCC(=O)O)C(=O)O)NC(=O)[C@H](CO)NC(=O)[C@H](CC(=O)O)NC(=O)[C@H](CC(C)C)NC(=O)[C@](C)(Cc1ccccc1)NC(=O)[C@H](CCCCN)NC(=O)[C@H](CO)NC(=O)[C@@H](NC(=O)[C@H](CC(=O)O)NC(=O)[C@H](CO)NC(=O)[C@@H](NC(=O)[C@H](Cc1ccccc1)NC(=O)[C@@H](NC(=O)CNC(=O)[C@H](CCC(N)=O)NC(=O)C(C)(C)NC(=O)[C@@H](N)Cc1c[nH]cn1)[C@@H](C)O)[C@@H](C)O)C(C)C)C(C)C)C(=O)N[C@@H](CC(C)C)C(=O)NC(C)(C)C(=O)N[C@H](C(=O)N[C@@H](CCC(=O)O)C(=O)O)[C@@H](C)O) [Peptide 166],48,270
H[Aib]HGS[αMeF]TSDVSK[αMeF]LDSK([AEEA-AEEA-γGlu-C18 diacid])AAQD[αMeF]VEWIAN-NH2 (N-terminus assumed; SMILES CC[C@H](C)[C@H](NC(=O)[C@H](Cc1c[nH]c2ccccc12)NC(=O)[C@H](CCC(=O)O)NC(=O)[C@@H](NC(=O)[C@](C)(Cc1ccccc1)NC(=O)[C@H](CC(=O)O)NC(=O)[C@H](CCC(N)=O)NC(=O)[C@H](C)NC(=O)[C@H](C)NC(=O)[C@H](CCCCNC(=O)COCCOCCNC(=O)COCCOCCNC(=O)CC[C@H](NC(=O)CCCCCCCCCCCCCCCCC(=O)O)C(=O)O)NC(=O)[C@H](CO)NC(=O)[C@H](CC(=O)O)NC(=O)[C@H](CC(C)C)NC(=O)[C@](C)(Cc1ccccc1)NC(=O)[C@H](CCCCN)NC(=O)[C@H](CO)NC(=O)[C@@H](NC(=O)[C@H](CC(=O)O)NC(=O)[C@H](CO)NC(=O)[C@@H](NC(=O)[C@](C)(Cc1ccccc1)NC(=O)[C@H](CO)NC(=O)CNC(=O)[C@H](Cc1c[nH]cn1)NC(=O)C(C)(C)NC(=O)[C@@H](N)Cc1c[nH]cn1)[C@@H](C)O)C(C)C)C(C)C)C(=O)N[C@@H](C)C(=O)N[C@@H](CC(N)=O)C(N)=O) [Peptide 6],568,516
HSQGS[αMeF]TSDVSK[Dip]LDSK([(PEG)2-(PEG)2-γGlu-γGlu-Stearoyl])AAQD[αMeF]VQ[Dip]LEA-NH2 [Peptide 55],18.8,19.1
HSQGS[αMeF]TSDVSK[Dip]LDSK([PEG4-γGlu-γGlu-Stearoyl])AAQD[αMeF]VE[Aib]IINT-NH2 (N-terminus assumed; SMILES CCCCCCCCCCCCCCCCCC(=O)N[C@@H](CCC(=O)N[C@@H](CCC(=O)NCCOCCOCCOCCOCCC(=O)NCCCC[C@H](NC(=O)[C@H](CO)NC(=O)[C@H](CC(=O)O)NC(=O)[C@H](CC(C)C)NC(=O)[C@@H](NC(=O)[C@H](CCCCN)NC(=O)[C@H](CO)NC(=O)[C@@H](NC(=O)[C@H](CC(=O)O)NC(=O)[C@H](CO)NC(=O)[C@@H](NC(=O)[C@](C)(Cc1ccccc1)NC(=O)[C@H](CO)NC(=O)CNC(=O)[C@H](CCC(N)=O)NC(=O)[C@H](CO)NC(=O)[C@@H](N)Cc1c[nH]cn1)[C@@H](C)O)C(C)C)C(c1ccccc1)c1ccccc1)C(=O)N[C@@H](C)C(=O)N[C@@H](C)C(=O)N[C@@H](CCC(N)=O)C(=O)N[C@@H](CC(=O)O)C(=O)N[C@@](C)(Cc1ccccc1)C(=O)N[C@H](C(=O)N[C@@H](CCC(=O)O)C(=O)NC(C)(C)C(=O)N[C@H](C(=O)N[C@H](C(=O)N[C@@H](CC(N)=O)C(=O)N[C@H](C(N)=O)[C@@H](C)O)[C@@H](C)CC)[C@@H](C)CC)C(C)C)C(=O)O)C(=O)O) [Peptide 56],4.86,10.9
HSQGS[αMeF]TSDVSK[Dip]LDSK([PEG8-γGlu-γGlu-Stearoyl])AAQD[αMeF]VE[Aib]IINT-NH2 (N-terminus assumed; SMILES CCCCCCCCCCCCCCCCCC(=O)N[C@@H](CCC(=O)N[C@@H](CCC(=O)NCCOCCOCCOCCOCCOCCOCCOCCOCCC(=O)NCCCC[C@H](NC(=O)[C@H](CO)NC(=O)[C@H](CC(=O)O)NC(=O)[C@H](CC(C)C)NC(=O)[C@@H](NC(=O)[C@H](CCCCN)NC(=O)[C@H](CO)NC(=O)[C@@H](NC(=O)[C@H](CC(=O)O)NC(=O)[C@H](CO)NC(=O)[C@@H](NC(=O)[C@](C)(Cc1ccccc1)NC(=O)[C@H](CO)NC(=O)CNC(=O)[C@H](CCC(N)=O)NC(=O)[C@H](CO)NC(=O)[C@@H](N)Cc1c[nH]cn1)[C@@H](C)O)C(C)C)C(c1ccccc1)c1ccccc1)C(=O)N[C@@H](C)C(=O)N[C@@H](C)C(=O)N[C@@H](CCC(N)=O)C(=O)N[C@@H](CC(=O)O)C(=O)N[C@@](C)(Cc1ccccc1)C(=O)N[C@H](C(=O)N[C@@H](CCC(=O)O)C(=O)NC(C)(C)C(=O)N[C@H](C(=O)N[C@H](C(=O)N[C@@H](CC(N)=O)C(=O)N[C@H](C(N)=O)[C@@H](C)O)[C@@H](C)CC)[C@@H](C)CC)C(C)C)C(=O)O)C(=O)O) [Peptide 57],9.09,16.9
H[Aib]HGS[αMeF]TSDVSK[αMeF]LDSK([γGlu-C18 diacid])AAQD[αMeF]VEWIANT-NH2 (N-terminus assumed; SMILES CC[C@H](C)[C@H](NC(=O)[C@H](Cc1c[nH]c2ccccc12)NC(=O)[C@H](CCC(=O)O)NC(=O)[C@@H](NC(=O)[C@](C)(Cc1ccccc1)NC(=O)[C@H](CC(=O)O)NC(=O)[C@H](CCC(N)=O)NC(=O)[C@H](C)NC(=O)[C@H](C)NC(=O)[C@H](CCCCNC(=O)CC[C@H](NC(=O)CCCCCCCCCCCCCCCCC(=O)O)C(=O)O)NC(=O)[C@H](CO)NC(=O)[C@H](CC(=O)O)NC(=O)[C@H](CC(C)C)NC(=O)[C@](C)(Cc1ccccc1)NC(=O)[C@H](CCCCN)NC(=O)[C@H](CO)NC(=O)[C@@H](NC(=O)[C@H](CC(=O)O)NC(=O)[C@H](CO)NC(=O)[C@@H](NC(=O)[C@](C)(Cc1ccccc1)NC(=O)[C@H](CO)NC(=O)CNC(=O)[C@H](Cc1c[nH]cn1)NC(=O)C(C)(C)NC(=O)[C@@H](N)Cc1c[nH]cn1)[C@@H](C)O)C(C)C)C(C)C)C(=O)N[C@@H](C)C(=O)N[C@@H](CC(N)=O)C(=O)N[C@H](C(N)=O)[C@@H](C)O) [Peptide 7],84.6,30.7
